Values belong to the binder of their own block, whether it stands above or below them.
Assays:
[1] = target: KEAP1 (wild-type full-length), His-tagged (human) (UniProt Q14145); test: AlphaScreen; 153.6 nM FLAG-NRF2, 150 nM His-KEAP1; signal against NRF2 only; control for I28V
[2] = target: KEAP1 (wild-type full-length), His-tagged (human) (UniProt Q14145); test: AlphaScreen; 76.8 nM FLAG-NRF2, 150 nM His-KEAP1; Rep 1; control for I86V
[3] = target: KEAP1 (wild-type full-length), His-tagged (human) (UniProt Q14145); test: AlphaScreen; 1228.8 nM FLAG-NRF2, 150 nM His-KEAP1; signal against NRF2 only; control for I86V
[4] = target: KEAP1 (wild-type full-length), His-tagged (human) (UniProt Q14145); test: AlphaScreen; 9.6 nM FLAG-NRF2, 150 nM His-KEAP1; signal against NRF2 only; control for I28V
[5] = target: KEAP1 (wild-type full-length), His-tagged (human) (UniProt Q14145); test: AlphaScreen; NRF2 wt isoform 1 38.4 nM, KEAP1 150 nM; signal against NRF2-only control; control for I86V
[6] = target: KEAP1 (wild-type full-length), His-tagged (human) (UniProt Q14145); test: AlphaScreen; FLAG-NRF2 wt isoform 1 38.4 nM, His-KEAP1 150 nM; Rep 1; positive control for I86V
[7] = target: KEAP1 (wild-type full-length), His-tagged (human) (UniProt Q14145); test: AlphaScreen; 38.4 nM FLAG-NRF2, 150 nM His-KEAP1; Rep 2; control for I28V
[8] = target: KEAP1 (wild-type full-length), His-tagged (human) (UniProt Q14145); test: AlphaScreen; mean over 9.6, 19.2 and 38.4 nM NRF2 wt isoform 1, KEAP1 150 nM; reference for Q75R
[9] = target: KEAP1 (wild-type full-length), His-tagged (human) (UniProt Q14145); test: AlphaScreen; FLAG-NRF2 wt isoform 1 614.4 nM, His-KEAP1 150 nM; Rep 1; positive control for Q75R
[10] = target: KEAP1 (wild-type full-length), His-tagged (human) (UniProt Q14145); test: AlphaScreen; 38.4 nM FLAG-NRF2, 150 nM His-KEAP1; Repeat 1 (same value as in Table 26)
[11] = target: KEAP1 (wild-type full-length), His-tagged (human) (UniProt Q14145); test: AlphaScreen; 9.6 nM FLAG-NRF2, 150 nM His-KEAP1; Rep 1; control for I28V
[12] = target: KEAP1 (wild-type full-length), His-tagged (human) (UniProt Q14145); test: AlphaScreen; NRF2 wt isoform 1 9.6 nM, KEAP1 150 nM; signal against NRF2-only control; control for I86V
[13] = target: KEAP1 (wild-type full-length), His-tagged (human) (UniProt Q14145); test: AlphaScreen; NRF2 wt isoform 1 38.4 nM, KEAP1 150 nM; signal against NRF2-only control; control for Q75R
[14] = target: KEAP1 (wild-type full-length), His-tagged (human) (UniProt Q14145); test: AlphaScreen; 9.6 nM FLAG-NRF2, 150 nM His-KEAP1 (same value as in Table 26)
[15] = target: KEAP1 (wild-type full-length), His-tagged (human) (UniProt Q14145); test: AlphaScreen; FLAG-NRF2 I86V 9.6 nM, His-KEAP1 150 nM; Rep 1
[16] = target: KEAP1 (wild-type full-length), His-tagged (human) (UniProt Q14145); test: AlphaScreen; FLAG-NRF2 I86V 614.4 nM, His-KEAP1 150 nM; Rep 1
[17] = target: KEAP1 (wild-type full-length), His-tagged (human) (UniProt Q14145); test: AlphaScreen; FLAG-NRF2 I86V 2.4 nM, His-KEAP1 150 nM; Rep 3
[18] = target: KEAP1 (wild-type full-length), His-tagged (human) (UniProt Q14145); test: AlphaScreen; FLAG-NRF2 I86V 2.4 nM, His-KEAP1 150 nM; Rep 1
[19] = target: KEAP1 (wild-type full-length), His-tagged (human) (UniProt Q14145); test: AlphaScreen; NRF2 I86V 614.4 nM, KEAP1 150 nM; signal against NRF2-only control
[20] = target: KEAP1 (wild-type full-length), His-tagged (human) (UniProt Q14145); test: AlphaScreen; mean over 9.6, 19.2 and 38.4 nM NRF2; 150 nM His-KEAP1; against wild-type NRF2 isoform 1
[21] = target: KEAP1 (wild-type full-length), His-tagged (human) (UniProt Q14145); test: AlphaScreen; 19.2 nM FLAG-NRF2, 150 nM His-KEAP1; against wild-type NRF2 isoform 1 = 100%
[22] = target: KEAP1 (wild-type full-length), His-tagged (human) (UniProt Q14145); test: AlphaScreen; 307.2 nM FLAG-NRF2, 150 nM His-KEAP1; signal against NRF2 only
[23] = target: KEAP1 (wild-type full-length), His-tagged (human) (UniProt Q14145); test: AlphaScreen; FLAG-NRF2 Q75R 9.6 nM, His-KEAP1 150 nM; Repeat 2
[24] = target: KEAP1 (wild-type full-length), His-tagged (human) (UniProt Q14145); test: AlphaScreen; FLAG-NRF2 Q75R 9.6 nM, His-KEAP1 150 nM; Rep 1
[25] = target: KEAP1 (wild-type full-length), His-tagged (human) (UniProt Q14145); test: AlphaScreen; FLAG-NRF2 Q75R 38.4 nM, His-KEAP1 150 nM; Repeat 2
[26] = target: KEAP1 (wild-type full-length), His-tagged (human) (UniProt Q14145); test: AlphaScreen; NRF2 Q75R 4.8 nM, KEAP1 150 nM; signal against NRF2-only control
[27] = target: KEAP1 (wild-type full-length), His-tagged (human) (UniProt Q14145); test: AlphaScreen; FLAG-NRF2 Q75R 4.8 nM, His-KEAP1 150 nM; Rep 1

Chain of KEAP1 (wild-type full-length), His-tagged (human) (Q14145 2-624 limits assumed): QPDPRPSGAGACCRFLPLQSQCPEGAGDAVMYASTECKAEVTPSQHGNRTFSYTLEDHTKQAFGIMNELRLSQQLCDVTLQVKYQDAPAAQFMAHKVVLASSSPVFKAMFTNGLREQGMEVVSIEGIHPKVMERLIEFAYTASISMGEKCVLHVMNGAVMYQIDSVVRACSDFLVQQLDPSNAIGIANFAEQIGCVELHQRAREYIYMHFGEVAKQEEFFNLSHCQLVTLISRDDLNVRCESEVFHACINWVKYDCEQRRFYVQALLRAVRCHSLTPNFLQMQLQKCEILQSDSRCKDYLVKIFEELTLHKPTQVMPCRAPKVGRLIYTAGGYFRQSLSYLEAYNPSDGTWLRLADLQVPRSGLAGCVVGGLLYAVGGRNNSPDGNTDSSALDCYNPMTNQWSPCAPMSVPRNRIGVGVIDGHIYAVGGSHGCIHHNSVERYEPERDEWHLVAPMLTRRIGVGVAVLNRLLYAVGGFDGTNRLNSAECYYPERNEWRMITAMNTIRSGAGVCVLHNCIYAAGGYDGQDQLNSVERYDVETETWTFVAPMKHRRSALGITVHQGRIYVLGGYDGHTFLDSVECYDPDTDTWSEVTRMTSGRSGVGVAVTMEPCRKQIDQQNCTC

B2: NRF2 isoform 1 (I86V full-length), FLAG-tagged (protein)
chain: MMDLELPPPGLPSQQDMDLIDILWRQDIDLGVSREVFDFSQRRKEYELEKQKKLEKERQEQLQKEQEKAFFAQLQLDEETGEFLPVQPAQHIQSETSGSANYSQVAHIPKSDALYFDDCMQLLAQTFPFVDDNEVSSATFQSLVPDIPGHIESPVFIATNQAQSPETSVAQVAPVDLDGMQQDIEQVWEELLSIPELQCLNIENDKLVETTMVPSPEAKLTEVDNYHFYSSIPSMEKEVGNCSPHFLNAFEDSFSSILSTEDPNQLTVNSLNSDATVNTDFGDEFYSAFIAEPSISNSMPSPATLSHSLSELLNGPIDVSDLSLCKAFNQNHPESTAEFNDSDSGISLNTSPSVASPEHSVESSSYGDTLLGLSDSEVEELDSAPGSVKQNGPKTPVHSSGDMVQPLSPSQGQSTHVHDAQCENTPEKELPVSPGHRKTPFTKDKHSSRLEAHLTRDELRAKALHIPFPVEKIINLPVVDFNEMMSKEQFNEAQLALIRDIRRRGKNKVAAQNCRKRKLENIVELEQDLDHLKDEKEKLLKEKGENDKSLHLLKKQLSTLYLEVFSMLRDEDGKPYSPSEYSLQQTRDGNVFLVPKSKKPDVKKN
A-counts (NRF2 plus KEAP1) [15]: 2730 A-counts
A-counts (NRF2 plus KEAP1) [16]: 2000 A-counts
A-counts (NRF2 plus KEAP1) [17]: 1680 A-counts
A-counts (NRF2 plus KEAP1) [18]: 1730 A-counts
S/N [19]: 1.1

B4: NRF2 isoform 1 (Q75R full-length), FLAG-tagged (protein)
chain: MMDLELPPPGLPSQQDMDLIDILWRQDIDLGVSREVFDFSQRRKEYELEKQKKLEKERQEQLQKEQEKAFFAQLRLDEETGEFLPIQPAQHIQSETSGSANYSQVAHIPKSDALYFDDCMQLLAQTFPFVDDNEVSSATFQSLVPDIPGHIESPVFIATNQAQSPETSVAQVAPVDLDGMQQDIEQVWEELLSIPELQCLNIENDKLVETTMVPSPEAKLTEVDNYHFYSSIPSMEKEVGNCSPHFLNAFEDSFSSILSTEDPNQLTVNSLNSDATVNTDFGDEFYSAFIAEPSISNSMPSPATLSHSLSELLNGPIDVSDLSLCKAFNQNHPESTAEFNDSDSGISLNTSPSVASPEHSVESSSYGDTLLGLSDSEVEELDSAPGSVKQNGPKTPVHSSGDMVQPLSPSQGQSTHVHDAQCENTPEKELPVSPGHRKTPFTKDKHSSRLEAHLTRDELRAKALHIPFPVEKIINLPVVDFNEMMSKEQFNEAQLALIRDIRRRGKNKVAAQNCRKRKLENIVELEQDLDHLKDEKEKLLKEKGENDKSLHLLKKQLSTLYLEVFSMLRDEDGKPYSPSEYSLQQTRDGNVFLVPKSKKPDVKKN
A-counts (NRF2 plus KEAP1) [23]: 1090 A-counts
A-counts (NRF2 plus KEAP1) [24]: 1180 A-counts
A-counts (NRF2 plus KEAP1) [25]: 1280 A-counts
S/N [26]: 2.3
A-counts (NRF2 plus KEAP1) [27]: 826 A-counts

Further lines, results first:

S/N [1]: 1.9
A-counts [2]: 3020 A-counts
S/N [3]: 1
S/N [4]: 4.1
S/N [5]: 3
A-counts (NRF2 plus KEAP1) [6]: 3100 A-counts
A-counts [7]: 1900 A-counts
Average Binding [8]: 100%
A-counts (NRF2 plus KEAP1) [9]: 1650 A-counts
A-counts [10]: 2000 A-counts
A-counts [11]: 1590 A-counts
S/N [12]: 3.6
S/N [13]: 2.8
S/N [14]: 4.1
B1: NRF2 isoform 1 (wild-type full-length), FLAG-tagged (protein)
chain: MMDLELPPPGLPSQQDMDLIDILWRQDIDLGVSREVFDFSQRRKEYELEKQKKLEKERQEQLQKEQEKAFFAQLQLDEETGEFLPIQPAQHIQSETSGSANYSQVAHIPKSDALYFDDCMQLLAQTFPFVDDNEVSSATFQSLVPDIPGHIESPVFIATNQAQSPETSVAQVAPVDLDGMQQDIEQVWEELLSIPELQCLNIENDKLVETTMVPSPEAKLTEVDNYHFYSSIPSMEKEVGNCSPHFLNAFEDSFSSILSTEDPNQLTVNSLNSDATVNTDFGDEFYSAFIAEPSISNSMPSPATLSHSLSELLNGPIDVSDLSLCKAFNQNHPESTAEFNDSDSGISLNTSPSVASPEHSVESSSYGDTLLGLSDSEVEELDSAPGSVKQNGPKTPVHSSGDMVQPLSPSQGQSTHVHDAQCENTPEKELPVSPGHRKTPFTKDKHSSRLEAHLTRDELRAKALHIPFPVEKIINLPVVDFNEMMSKEQFNEAQLALIRDIRRRGKNKVAAQNCRKRKLENIVELEQDLDHLKDEKEKLLKEKGENDKSLHLLKKQLSTLYLEVFSMLRDEDGKPYSPSEYSLQQTRDGNVFLVPKSKKPDVKKN

Avg. Reduction in Binding [20]: 30.2%
Binding Percentage (%) [21]: 68.3%
S/N [22]: 1.2
B3: NRF2 isoform 1 (I28V full-length), FLAG-tagged (protein)
chain: MMDLELPPPGLPSQQDMDLIDILWRQDVDLGVSREVFDFSQRRKEYELEKQKKLEKERQEQLQKEQEKAFFAQLQLDEETGEFLPIQPAQHIQSETSGSANYSQVAHIPKSDALYFDDCMQLLAQTFPFVDDNEVSSATFQSLVPDIPGHIESPVFIATNQAQSPETSVAQVAPVDLDGMQQDIEQVWEELLSIPELQCLNIENDKLVETTMVPSPEAKLTEVDNYHFYSSIPSMEKEVGNCSPHFLNAFEDSFSSILSTEDPNQLTVNSLNSDATVNTDFGDEFYSAFIAEPSISNSMPSPATLSHSLSELLNGPIDVSDLSLCKAFNQNHPESTAEFNDSDSGISLNTSPSVASPEHSVESSSYGDTLLGLSDSEVEELDSAPGSVKQNGPKTPVHSSGDMVQPLSPSQGQSTHVHDAQCENTPEKELPVSPGHRKTPFTKDKHSSRLEAHLTRDELRAKALHIPFPVEKIINLPVVDFNEMMSKEQFNEAQLALIRDIRRRGKNKVAAQNCRKRKLENIVELEQDLDHLKDEKEKLLKEKGENDKSLHLLKKQLSTLYLEVFSMLRDEDGKPYSPSEYSLQQTRDGNVFLVPKSKKPDVKKN
